Reference: article PMC7190278 (Cell, 2020)
Where no end group is shown, it is not given here. [ ]: non-standard residue; d: D form. pS = N[C@@H](COP(=O)(O)O)C(=O)O

B1: Protamine 1 (P1), wild type, not phosphorylated (peptide, UniProt P02319 1-51, looked up)
chain: MARYRCCRSKSRSRCRRRRRRCRRRRRRCCRRRRRRCCRRRRSYTIRCKKY
B2: Protamine 1 (P1) S9A S43A double mutant (peptide, UniProt P02319 1-51, looked up)
chain: MARYRCCRAKSRSRCRRRRRRCRRRRRRCCRRRRRRCCRRRRAYTIRCKKY
B3: Protamine 1 (P1) S43A, phosphorylated by SRPK1 (peptide, UniProt P02319 1-51, looked up)
chain: MARYRCCR[pS]KSRSRCRRRRRRCRRRRRRCCRRRRRRCCRRRRAYTIRCKKY
modifications: cysteine pairing not given here
B4: Protamine 1 (P1) S43A, not phosphorylated (peptide, UniProt P02319 1-51, looked up)
chain: MARYRCCRSKSRSRCRRRRRRCRRRRRRCCRRRRRRCCRRRRAYTIRCKKY
B5: Protamine 1 (P1) S9A, phosphorylated by SRPK1 (peptide, UniProt P02319 1-51, looked up)
chain: MARYRCCRAKSRSRCRRRRRRCRRRRRRCCRRRRRRCCRRRR[pS]YTIRCKKY
modifications: cysteine pairing not given here
B6: Protamine 1 (P1) S9A, not phosphorylated (peptide, UniProt P02319 1-51, looked up)
chain: MARYRCCRAKSRSRCRRRRRRCRRRRRRCCRRRRRRCCRRRRSYTIRCKKY
B7: Protamine 1 (P1), wild type, phosphorylated by SRPK1 (peptide, UniProt P02319 1-51, looked up)
chain: MARYRCCR[pS]KSRSRCRRRRRRCRRRRRRCCRRRRRRCCRRRR[pS]YTIRCKKY
modifications: cysteine pairing not given here

molecular target: T1, HA-tagged human NPM2 (nucleoplasmin 2) (human, UniProt Q86SE8 1-214); test: pull-down
T1 sequence (looked up): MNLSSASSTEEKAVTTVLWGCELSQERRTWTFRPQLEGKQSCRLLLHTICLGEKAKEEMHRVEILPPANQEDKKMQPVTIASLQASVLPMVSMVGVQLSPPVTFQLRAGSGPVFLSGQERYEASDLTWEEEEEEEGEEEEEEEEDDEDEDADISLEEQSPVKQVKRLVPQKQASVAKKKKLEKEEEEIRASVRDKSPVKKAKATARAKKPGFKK

Binding result, binds:
B1
B2
B3
B4
B5
B6
B7

molecular target: HA-tagged human HIRA (human, UniProt P54198 1-1017); test: pull-down
Sequence (P54198 whole entry): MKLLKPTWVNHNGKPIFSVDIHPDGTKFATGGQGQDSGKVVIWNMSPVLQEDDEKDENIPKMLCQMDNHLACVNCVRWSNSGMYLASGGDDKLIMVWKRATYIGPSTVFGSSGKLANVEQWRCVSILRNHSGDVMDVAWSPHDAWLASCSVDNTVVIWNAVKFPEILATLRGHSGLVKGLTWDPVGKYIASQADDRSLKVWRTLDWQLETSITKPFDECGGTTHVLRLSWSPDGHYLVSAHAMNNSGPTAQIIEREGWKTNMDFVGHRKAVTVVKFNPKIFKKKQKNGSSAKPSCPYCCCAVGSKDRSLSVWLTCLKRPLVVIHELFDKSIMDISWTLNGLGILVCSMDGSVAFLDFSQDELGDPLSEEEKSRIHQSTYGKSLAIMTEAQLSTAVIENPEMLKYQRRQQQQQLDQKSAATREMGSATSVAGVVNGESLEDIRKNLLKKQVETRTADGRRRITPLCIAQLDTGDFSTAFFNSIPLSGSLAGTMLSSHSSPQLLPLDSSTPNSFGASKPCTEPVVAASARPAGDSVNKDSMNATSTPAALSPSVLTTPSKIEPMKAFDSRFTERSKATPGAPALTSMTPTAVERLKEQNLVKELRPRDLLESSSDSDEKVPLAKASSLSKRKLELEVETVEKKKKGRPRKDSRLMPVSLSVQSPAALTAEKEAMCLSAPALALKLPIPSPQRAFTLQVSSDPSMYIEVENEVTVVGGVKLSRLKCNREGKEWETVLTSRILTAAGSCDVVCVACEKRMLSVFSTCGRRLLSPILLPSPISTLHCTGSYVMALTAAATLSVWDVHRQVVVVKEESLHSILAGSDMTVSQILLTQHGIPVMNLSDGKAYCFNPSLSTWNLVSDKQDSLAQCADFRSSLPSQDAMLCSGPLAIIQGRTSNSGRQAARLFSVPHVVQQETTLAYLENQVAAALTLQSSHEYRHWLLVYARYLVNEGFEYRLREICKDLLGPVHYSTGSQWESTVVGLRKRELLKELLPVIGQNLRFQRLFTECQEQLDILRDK

Binding result, binds:
B3
B5
